# Test results taken from publication PMC11148156, “Substrate scope expansion of 4-phenol oxidases by rational enzyme selection and sequence-function relations” (Communications Chemistry, 2024).
# T1: NspEUGO (Nocardioides sp. YR527, UniProt A0A1G9AL67)
# T1 construct: gene SAMN05428985_103382; recombinant, expressed in E. coli; flavin-dependent; details in supplement
# T1 sequence (A0A1G9AL67 1-529): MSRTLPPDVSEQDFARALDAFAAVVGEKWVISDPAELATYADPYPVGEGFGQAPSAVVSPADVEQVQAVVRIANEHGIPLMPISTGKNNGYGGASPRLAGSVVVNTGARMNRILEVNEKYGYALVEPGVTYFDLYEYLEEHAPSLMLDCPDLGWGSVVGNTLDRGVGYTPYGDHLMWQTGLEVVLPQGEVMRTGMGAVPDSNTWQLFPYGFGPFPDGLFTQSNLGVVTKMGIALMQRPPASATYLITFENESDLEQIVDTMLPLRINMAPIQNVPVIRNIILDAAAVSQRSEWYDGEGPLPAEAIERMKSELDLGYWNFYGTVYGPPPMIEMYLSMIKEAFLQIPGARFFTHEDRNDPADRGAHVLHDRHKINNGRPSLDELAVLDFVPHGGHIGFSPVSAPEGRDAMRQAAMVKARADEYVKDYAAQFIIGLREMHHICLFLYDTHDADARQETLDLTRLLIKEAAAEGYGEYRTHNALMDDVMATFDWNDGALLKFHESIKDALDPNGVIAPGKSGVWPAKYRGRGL
# T2: RjEUGO (Rhodococcus jostii, UniProt Q0SBK1)
# T2 construct: gene RHA1_ro03282; recombinant, expressed in E. coli; flavin-dependent; details in supplement
# T2 sequence (Q0SBK1 1-526): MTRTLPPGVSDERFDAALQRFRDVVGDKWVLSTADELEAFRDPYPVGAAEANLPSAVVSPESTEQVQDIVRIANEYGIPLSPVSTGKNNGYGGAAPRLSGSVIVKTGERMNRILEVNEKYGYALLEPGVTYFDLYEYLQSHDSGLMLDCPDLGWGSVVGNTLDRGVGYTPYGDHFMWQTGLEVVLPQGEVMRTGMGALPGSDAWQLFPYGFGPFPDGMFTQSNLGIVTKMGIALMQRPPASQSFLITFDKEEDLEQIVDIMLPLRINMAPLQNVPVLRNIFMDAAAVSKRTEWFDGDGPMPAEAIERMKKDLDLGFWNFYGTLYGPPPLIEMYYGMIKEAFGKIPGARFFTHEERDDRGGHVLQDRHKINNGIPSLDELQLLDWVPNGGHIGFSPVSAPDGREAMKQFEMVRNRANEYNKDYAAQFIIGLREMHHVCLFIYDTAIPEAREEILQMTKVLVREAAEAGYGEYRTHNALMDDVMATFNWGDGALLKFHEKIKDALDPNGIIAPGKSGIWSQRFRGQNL
# Columns and labels:
# NspEUGO = target: T1, NspEUGO; test: xylenol orange assay (initial rate); type: biochemical; conditions: 2 mM substrate, 50 mM potassium phosphate pH 7.5
# RjEUGO = target: T2, RjEUGO; test: xylenol orange assay (initial rate); type: biochemical; conditions: 2 mM substrate, 50 mM potassium phosphate pH 7.5
# [1] = substrate: C=CCc1ccc(O)c(OC)c1; test: Michaelis-Menten kinetics; type: biochemical, Arthrobacter sp. UCD-GKA; conditions: optimal conditions for both enzymes (see supplement)
# [2] = substrate: COc1cc(CO)ccc1O; test: Michaelis-Menten kinetics; type: biochemical, Arthrobacter sp. UCD-GKA; conditions: optimal conditions for both enzymes (see supplement)
# [3] = substrate: OCc1ccc(O)cc1; test: Michaelis-Menten kinetics; type: biochemical, Arthrobacter sp. UCD-GKA; conditions: pH 9.5
# [4] = substrate: C=CCc1ccc(O)c(OC)c1; test: Michaelis-Menten kinetics; type: biochemical, Geodermatophilaceae bacterium; conditions: optimal conditions for both enzymes (see supplement)
# [5] = substrate: COc1cc(CO)ccc1O; test: Michaelis-Menten kinetics; type: biochemical, Geodermatophilaceae bacterium; conditions: optimal conditions for both enzymes (see supplement)
# [6] = substrate: OCc1ccc(O)cc1; test: Michaelis-Menten kinetics; type: biochemical, Geodermatophilaceae bacterium; conditions: pH 9.5
molecule,measurement,setting,value
"CCCCOCc1ccc(O)c(OC)c1 [compound 13, vanillyl butyl ether]",xylenol orange assay (initial rate),NspEUGO,NspEUGO which is the most active wildtype enzyme on vanillyl butyl ether
"Oc1ccc(C2CCCC2)cc1 [compound 42, 4-cyclopentyl phenol]",xylenol orange assay (initial rate),RjEUGO,RjEUGO which was the most active wildtype enzyme for 4-cyclopentyl phenol
"AspEUGO (Arthrobacter sp. UCD-GKA) (protein, recombinant, expressed in E. coli; flavin-dependent; details in supplement) MSRIIPLDVSEADFDAALEEFRGALGAQWVLSSPVELEAFADPYPTTNGLEFLPGAVISPSTPEEVQVIVGIANKYKVPLSPVSTGKNLGYGGAAPRLSGTVVVNTGERMNKIIEVNEKYAFALVEPGVTYFDLYNHIQEKGYNLWIDVPDLGWGSIVGNTLDRGVGYTPYGDHWSWQTGLEVVLPDGDLLRTGMGAMSGSDAWQLFPYGFGPYPDGLFSQSNYGIVTKLGIALMPAPPASETFLITFENEADLEQVIDIMLPLRIGMAPLQNVPVLRNIFMDAAAVSHRDEWHAGPGHLSDDEIKTMQRELNLGYWNLYASVYGPPPQIEMFLAMIKEAFLQVPGARFATTKDRPESPEDRGGHVLHDRHKINRGIPTIEERHLMDWVPNGGHTSFSPVSAPDGKDAMRQALMVKKRADEFGQDYAAQFIVGLREMHHICLFLYNTAVPRERDNTLAMARILVEEAADAGYGEYRTHLALMDQVMATFDYNDGALLRFHERVKDALDPNSIMAPGKSGIWGARYRDRGLELLHAPALEDSTPNSA",Km,[1],28 ± 1 µM
same,kcat,[1],21 ± 0.4 s⁻¹
same,Km,[2],49 ± 3 µM
same,kcat,[2],24 ± 0.8 s⁻¹
same,Km,[3],33 ± 2 µM
same,kcat,[3],18 ± 1 s⁻¹
"GbEUGO (Geodermatophilaceae bacterium) (protein, recombinant, expressed in E. coli; flavin-dependent; details in supplement) MSRILPPELSDSDFDAAIARFRDVVGEKHVLTEDGDLSRYRDPYPVGGQPSGGASAAVAPETSEQVQEIVRIANEYGVPLSPISTGKNNGYGGGQPRLSGAVVVDTGLRMNRILEVNEKFGYALLEPGVSYFDLYEHLQANAPSLMLDCPDLGWGSVVGNTLDRGVGYTPYGDHLMWQTGLEVVLPTGDVMRTGMGAVPGSNAWQLFPYGFGPFPDGLFTQSNLGIVTKMGIALMQRPPASETFVISFDREEDLEQVVDIMLPLRINMAPLQNVPVLRNIILDAGVVSKRTEWHDGDGPLPPEAISRMKAELGLGYWNLYGTVYGPPPVLEAHLGIIKDAFLQVPGSRFATTQDRDEATDRGAHVLHDRHRINNGIPSLDEMKLMEFVPNGGHIGFSPVSAPDGADALRQSQMVRRRADEYRKDYAAQFIVGLREMHHIGLFLFDTTDAVARQETLDLARVLIDEAAAAGYGEYRTHNALMDQVMGTYNWGGDALLKFHETIKDALDPNSVMAPGKSGIWGRKYRDRALA",Km,[4],23 ± 1 µM
same,kcat,[4],23 ± 0.2 s⁻¹
same,Km,[5],31 ± 1 µM
same,kcat,[5],16 ± 0.4 s⁻¹
same,Km,[6],455 ± 50 µM
same,kcat,[6],18 ± 1 s⁻¹
